Earlier results as cited in publication PMC3283658.

Target: IL-15Rβγ (Homo sapiens) (UniProt P14784)
Sequence of UniProt P14784 (P14784 27-240, chain 1 of 2): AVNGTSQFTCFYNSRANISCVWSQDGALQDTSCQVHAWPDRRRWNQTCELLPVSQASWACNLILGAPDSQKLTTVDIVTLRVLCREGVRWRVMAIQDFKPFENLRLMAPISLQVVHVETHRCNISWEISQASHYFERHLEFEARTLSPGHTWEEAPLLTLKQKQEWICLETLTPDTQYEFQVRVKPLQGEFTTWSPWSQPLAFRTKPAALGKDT
Sequence of UniProt P14784 (P31785 23-262, chain 2 of 2, further chain): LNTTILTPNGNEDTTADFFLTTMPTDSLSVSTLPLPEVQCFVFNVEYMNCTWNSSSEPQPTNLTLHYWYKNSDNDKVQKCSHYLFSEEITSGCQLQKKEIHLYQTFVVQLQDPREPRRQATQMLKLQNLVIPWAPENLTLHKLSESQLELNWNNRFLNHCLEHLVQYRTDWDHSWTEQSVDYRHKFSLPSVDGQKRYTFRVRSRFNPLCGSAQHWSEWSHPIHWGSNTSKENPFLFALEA

Kd: 4 nM
Substance: IL-15 (from UniProt P40933)
